# What was measured:
# [1] = biological target: GIRK1/2-CFP; assay: FRET or BRET; acceptor bleaching under TIRF illumination in living HEK293T cells co-transfected with receptor-YFP (or prestin-YFP) and GIRK1/2-CFP; G protein subunits not additionally transfected; absence or presence of oxo-M (10 uM)
# [2] = biological target: GIRK1/2-CFP
# [3] = biological target: GIRK1/2-CFP; remark: listed apart in the source
substance,measurement,setting,value
receptor-YFP with the long chain in the middle of M2R-i3 (K221-P379) replaced with SGGGS,FRET efficiency,[1],5.5%
M1R-YFP (from UniProt P04761 1-460) (receptor),"agonist-induced GIRK channel current density (ΔImax), oxo-M 10 uM, tandem constructs M1R-YFP-34/100/265-GIRK1/2, PTX (-); decreased with the increase in the linker length",[2],11.3 pA/pF
M2R-YFP (from UniProt P06199 1-466) (receptor),"agonist-induced GIRK channel current density (ΔImax), oxo-M 10 uM, tandem constructs M2R-YFP-100/265/535-GIRK1/2, PTX (-); not changed with the increases in the linker length",[3],62 pA/pF
